B1: human DEAF-1 MYND domain (residues 501–544) (domain or fragment)
chain: GAMEQSCVNCGREAMSECTGCHKVNYCSTFCQRKDWKDHQHICGQSA
notes: N-terminal insertion of three amino acids GAM; DEAF-1, human, MYND domain, residues 501-544; 15N- or 15N/13C-labelled for NMR; also called short construct; source: E. coli BL21(DE3), purified (Ni-NTA, TEV cleavage, second Ni column, Superdex 75); not shown: poly-histidine tag, N-terminal, cleaved; thioredoxin, N-terminal, cleaved

Data set [1] concerns the molecule itself. Nature of the data set: AUC; sedimentation velocity, concentration-dependent; continuous sedimentation distribution at 86 µM DEAF-1 MYND; fitted to a self-association model; dimer to monomers.
Data set [2] deals with B1. Nature of the data set: NMR titration; 1 mM 15N-labeled DEAF-1 MYND titrated with unlabeled peptide (SMRT up to 9-fold, NCoR up to 5-fold molar excess); chemical shift perturbations fitted to a binding isotherm; fast exchange. To be noted: both partners purified.

Consider three molecules from publication PMC3555993, “Structural and Functional Analysis of the DEAF-1 and BS69 MYND Domains” (PLoS ONE, 2013).

As for B1, in data set [1], binding was characterised by a dissociation constant (Kd) of 500 ± 100 nM and the stoichiometry N (commonly a count of units in the complex or per binding partner) stood at 2.

B2: SMRT corepressor peptide (residues 1111–1120 of SMRT) (peptide)
peptide: SNPPPLISSA
notes: silencing mediator of retinoid and thyroid receptor (SMRT), residues 1111-1120; Unlabelled peptide; also called SMRT peptide
Turning to B2, in data set [2], the dissociation constant (Kd) (as a rule, the free concentration of one partner at which half of the binding sites on the other are occupied at equilibrium, for simple one-to-one binding) is 5.3 ± 0.54 mM.

B3: NCoR corepressor peptide (residues 1031–1040 of NCoR) (peptide)
peptide: RPPPPLIPSS
notes: nuclear receptor corepressor (NCoR), residues 1031-1040; Unlabelled peptide; also called NCoR peptide
Consider B3, for which, in data set [2], the Kd amounted to 3.08 ± 0.12 mM.
